Measured values published in publication PMC11510446, “Establishing a Relationship between In Vitro Potency in Cell-Based Assays and Clinical Efficacious Concentrations for Approved GLP-1 Receptor Agonists” (Pharmaceutics, 2024).
Read-outs that look alike come from different tables or passages of the source.

What was measured:
[1] = human, cited from earlier work
Excerpt: Pharmacokinetic parameters representing rate of absorption (Ka), central clearance (CL), central volume (Vc), peripheral volume (Vp), distribution clearance (CLd), bioavailability (F) and lag- time (Tlag).

[2] = molecular target: human GLP-1R (Homo sapiens, UniProt P43220); test: cAMP accumulation assay (HTRF) in stable CHO cell line expressing human GLP-1R; assay type: cell-based
Method: Cell-based cyclic adenosine monophosphate (cAMP) accumulation assays were used to measure in vitro potency for GLP-1RAs in a stable Chinese hamster ovary (CHO) cell line expressing human GLP-1R (generated at AstraZeneca) or EndoC-βH1 cells endogenously expressing the GLP-1R (Endocells, Paris, France) as previously described. In brief, test GLP-1RA serial dilutions were prepared using an ECHO® acoustic liquid handler (Beckman, High Wycombe, UK) to obtain an 11-point dose–response curve in assay buffer (Hanks’ balanced salt solution (HBSS)) supplemented with 25 mM of HEPES and 0.5 mM of 3-isobutyl-1-methylxanthine (IBMX). […] The EndoC-βH1 cell assay was performed in an assay buffer containing 0.1% BSA.
Following compound and cell incubation for 30 min, the level of cAMP accumulation was determined using a cAMP dynamic 2 HTRF (homogeneous time-resolved fluorescence) kit (Cisbio, Codolet, France), following the two-step protocol according to the manufacturer’s guidelines. Treated cells were incubated with anti-cAMP cryptate and cAMP-d2 in lysis buffer at room temperature for 1 h and read on an Envision plate reader (PerkinElmer, Waltham, MA, USA).

Sequence of human GLP-1R (P43220 24-463): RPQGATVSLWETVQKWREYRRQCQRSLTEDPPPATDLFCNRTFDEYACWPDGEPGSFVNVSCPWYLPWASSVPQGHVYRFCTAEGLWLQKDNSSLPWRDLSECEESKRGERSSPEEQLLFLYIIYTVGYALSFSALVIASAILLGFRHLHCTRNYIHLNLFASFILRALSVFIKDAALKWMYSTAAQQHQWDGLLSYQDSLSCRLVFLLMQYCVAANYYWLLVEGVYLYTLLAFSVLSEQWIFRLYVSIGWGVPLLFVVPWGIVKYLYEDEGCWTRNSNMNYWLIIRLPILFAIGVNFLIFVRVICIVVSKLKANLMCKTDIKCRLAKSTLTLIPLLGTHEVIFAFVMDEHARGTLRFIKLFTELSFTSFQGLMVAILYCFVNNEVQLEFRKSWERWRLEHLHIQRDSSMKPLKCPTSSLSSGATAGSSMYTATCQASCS

Compound | lag-time Tlag ([1]; T2D, ref [7] (supplement references)) | bioavailability F ([1]; fraction, dulaglutide value at 1.5 mg, ref [4] dulaglutide, [5] semaglutide oral, [6] semaglutide sc, [7] liraglutide (supplement references)) | central clearance CL ([1]; population PK, T2D (semaglutide oral: T2D, obesity), ref [4] dulaglutide, [5] semaglutide oral, [6] semaglutide sc, [7] liraglutide (supplement references)) | EC50 ([2]; read-out: EC50 (pM) 0.1%, NSB = BSA, shift assay Table S1A, 0.1% BSA) | EC50 ([2]; read-out: EC50 (pM) 0.1%, NSB = OA, shift assay Table S1B, 0.1% ovalbumin) | EC50 ([2]; read-out: EC50 (pM) 0.3%, NSB = BSA, shift assay Table S1A, 0.3% BSA) | EC50 ([2]; read-out: EC50 (pM) 0.3%, NSB = OA, shift assay Table S1B, 0.3% ovalbumin) | EC50 ([2]; read-out: EC50 (pM) 1%, NSB = BSA, shift assay Table S1A, 1% BSA) | EC50 ([2]; read-out: EC50 (pM) 1%, NSB = OA, shift assay Table S1B, 1% ovalbumin) | EC50 ([2]; read-out: EC50 (pM) 3%, NSB = BSA, shift assay Table S1A, 3% BSA) | EC50 ([2]; read-out: EC50 (pM) 3%, NSB = OA, shift assay Table S1B, 3% ovalbumin) | bioavailability F ([1]; in vivo) | central clearance CL ([1]; in vivo) | central volume Vc ([1]; in vivo) | distribution clearance CLd ([1]; in vivo) | peripheral volume Vp ([1]; in vivo) | rate of absorption Ka ([1]; in vivo)
CCCCCCCCCCCCCCCC(=O)N[C@@H](CCC(=O)NCCCC[C@H](NC(=O)[C@H](C)NC(=O)[C@H](C)NC(=O)[C@H](CCC(N)=O)NC(=O)CNC(=O)[C@H](CCC(=O)O)NC(=O)[C@H](CC(C)C)NC(=O)[C@H](Cc1ccc(O)cc1)NC(=O)[C@H](CO)NC(=O)[C@H](CO)NC(=O)[C@@H](NC(=O)[C@H](CC(=O)O)NC(=O)[C@H](CO)NC(=O)[C@@H](NC(=O)[C@H](Cc1ccccc1)NC(=O)[C@@H](NC(=O)CNC(=O)[C@H](CCC(=O)O)NC(=O)[C@H](C)NC(=O)[C@@H](N)Cc1cnc[nH]1)[C@@H](C)O)[C@@H](C)O)C(C)C)C(=O)N[C@@H](CCC(=O)O)C(=O)N[C@@H](Cc1ccccc1)C(=O)N[C@H](C(=O)N[C@@H](C)C(=O)N[C@@H](Cc1c[nH]c2ccccc12)C(=O)N[C@@H](CC(C)C)C(=O)N[C@H](C(=O)N[C@@H](CCCNC(=N)N)C(=O)NCC(=O)N[C@@H](CCCNC(=N)N)C(=O)NCC(=O)O)C(C)C)[C@@H](C)CC)C(=O)O [Liraglutide] | 6 h | 0.51 | 0.91 L/h |  |  |  |  |  |  |  |  |  |  |  |  |  | 
Dulaglutide: a DPP-IV-protected GLP-1 analog covalently linked to a human IgG4-Fc heavy chain by a peptide linker |  |  |  | 9.07 pM | 46.4 pM | 10.8 pM | 34.1 pM | 12.1 pM | 30.7 pM | 9.7 pM | 26 pM | 0.47 | 0.0593 L/h | 2.25 L | 0.0201 L/h | 3.75 L | 0.00769 h⁻¹
